This note sets out measurements from PMC12502779.

This series has as its target T1, 6xHis-OxyR (Salmonella enterica serovar Typhi ISP1820) (UniProt Q8XF66).
T1 sequence: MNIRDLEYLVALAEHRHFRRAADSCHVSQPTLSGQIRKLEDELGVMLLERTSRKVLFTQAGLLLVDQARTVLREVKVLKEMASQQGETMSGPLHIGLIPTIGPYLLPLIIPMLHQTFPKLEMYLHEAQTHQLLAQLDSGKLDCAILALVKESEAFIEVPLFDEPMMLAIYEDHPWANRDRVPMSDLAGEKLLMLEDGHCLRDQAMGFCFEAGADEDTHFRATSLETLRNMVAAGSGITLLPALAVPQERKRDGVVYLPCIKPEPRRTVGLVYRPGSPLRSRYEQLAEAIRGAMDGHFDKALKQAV
Description: EMSA. As to conditions: EMSA with 10 nM probe, 5% acrylamide gel, RedSafe stain; buffer, salt, pH and temperature not given (as previously described, ref 27). On the technique in general: Mobility shift assays separate free from complexed probe on a gel.

Regarding “GAAATCGGGCGTGGCATTCTGATTACTCAACAGTAATTCACGAACCCTTTTCTCGATCTCTTTCGCTGTCGCCGGGTTCTCTTTCAGCCAGGTAGTCGCGTTCGCTTTACCCTGGCCAATCTTCT (double strand) [recA]”, the binding result was “no binding”.
